According to US11161912B2, “Heparanase-neutralizing monoclonal antibodies” (Technion Research & Development Foundation Limited, priority 2015, dated 2021):

Experiments:
[1] = test system: ESb mouse T-lymphoma cells; assay: ESb T-lymphoma spontaneous liver metastasis and survival; assay type: in vivo; conditions: ESb, mAb 500 μg/mouse every other day, 3 weeks
Protocol: Lymphoma cells were also inoculated subcutaneously at the right flank of 6-weeks-old NOD/SCID mice (human cell lines) or C57BL/6 mice (E1-4 mouse lymphoma cells) (n=7). Mice were treated with heparanase inhibitors (PG545; SST0001) or neutralizing antibodies and xenografts size was determined by externally measuring the tumors in 2 dimensions using a caliper. At the end of the experiment, mice were sacrificed; tumor xenografts were removed, weighed and fixed for histological and immunohistochemical analyses (Weissmann et al, 2016, Proc Natl Acad Sci USA 113:704-709). ESb mouse T-lymphoma cells (5×10^5) were similarly inoculated subcutaneously into SCID mice and spontaneous metastasis to the liver (Vlodaysky et al., 1983, Cancer Res 43:2704-2711) was examined after 3 weeks of treatment with PG545 or the neutralizing mAb, as described above. All animal experiments were approved by the Animal Care Committee of the Technion, Haifa, Israel.
FIG. 3A. HEK 293 cells were incubated with latent 65 kDa (upper panel) or GS3 constitutively active heparanase (1 μg/ml; third panel) and the indicated mAbs (10 μg/ml). The cell medium was aspirated at the time designated and cell lysates were subjected to immunoblotting applying anti-heparanase antibody (upper and third panels). […] Heparanase-transfected 293 cells were grown with control mouse IgM or mAb 9E8 for two days. Cells were then fixed with methanol and subjected to immunofluorescent staining applying anti heparanase antibody (second panel) or lysed and subjected to immunoblotting applying anti-heparanase antibody (fourth panel). Purified recombinant active heparanase (200 ng) was pre-incubated with control mouse IgM ( ? ), mAb 8A5 ( ? ), mAb 9E8 ( ? ), all at 2 μg/ml, for 2 h in serum-free RPMI medium on ice. The mixture was then applied onto ^35S-labeled ECM-coated dishes and heparanase activity was determined as described above (lower panel). FIG. 3B, C. […] Quantification of the extent of CD45 staining is shown graphically in the lower panel. […]

Mouse B16 melanoma cells = assay: B16 melanoma experimental lung metastasis; assay type: in vivo; conditions: C57Bl/6 mice, given with the cells: Ab #1453 250 μg, mAb 9E8 500 μg, SST0001 400 μg; lungs after 18 days
Protocol: Experimental metastasis. B16 BL6 mouse melanoma (2×10^5) or LM2-4 human breast cancer cells (2×10^6) were injected into the tail vein of C57/BL mice or SCID/Beige mice (respectively) together with the indicated compound, essentially as described (Hostettler N, et al. 2007, FASEB J 21(13):3562-3572). Lungs were harvested 18 days thereafter and metastases occurrence was determined following fixation by gross inspection and histology (Weissmann et al, 2016, Proc Natl Acad Sci USA 113:704-709).
FIG. 5A. Cell invasion. Cal-27 tongue carcinoma (left panels) and U87 glioma cells (right panels) (2×10^5) were plated onto Matrigel-coated filters in the presence of mouse IgM/IgG (upper panels), mAb 9E8 (2 μg; second left and middle panels). Invading cells adhering to the lower side of the membrane were visualized after 6 h. The number of invading cells per high power field is shown graphically at the lower panels. FIG. 5B, FIG. 5C. Tumor metastasis. FIG. 5B Mouse B16 melanoma cells (2×10^5) were inoculated into the tail vein of C57Bl/6 mice (n=7) together with rabbit IgG (300 μg; Con), Ab #1453 (250 μg), mAb 9E8 (500 μg) or SST0001 (400 μg). Lungs were harvested after 18 days, photographed (lower panel) and the number of metastatic lesions was counted (upper panel; p=0.001, 0.0006, 0.0001 for Con vs. Ab 1453, Con vs. mAb 9E8 and Con vs. SST0001, respectively). […]

B1: mAb 9E8: monoclonal IgM raised against KKDC peptide (Lys158-Asn171) of heparanase; VH SEQ ID NO: 7, VL SEQ ID NO: 8 (antibody)
VH: EVKLLESGGGLVQPGGSLKLSCAASGFDFSRYWMSWVRQAPGKGLEWIGEINPDSSTINYTPSLKDKFIISRDNAKNTLYLQMSKVRSEDTALYYCARRGYEGNYAMDYWGQGTSVTVSSESQSFPNVFPLVSCESPLSDKNLVAMGCLAR
VL: DIVMTQAAPSVPVTPGESVSISCRSSKSLLHSNGNTYLYWFLQRPGQSPQLLIYRMSNLASGVPDRFSGSGSGTAFTLRISRVEAEDVGVYYCMQHLEYPFTFGSGTKLEIKRADAAPTVSIFPPSSEQLTSGGASVVCFL
modifications: IgM constant regions
[1]
  inhibition of liver metastasis (CD45 staining): 4-5 fold
Mouse B16 melanoma cells
  experimental lung metastasis (number of metastatic lesions): inhibitory effect
